The record followed here is patent US6723697B2, “IL-16 antagonists” (Research Corporation Technologies, Inc., priority 1999, dated 2004).

Holding throughout (type): cell-based
One assay has as its target T1, rIL-16 (Mus musculus, UniProt O54824).
T1 construct: polyhistidine fusion protein containing the 119 C-terminal residues encoded by the previously reported murine cDNA; polyhistidine (cleaved yes); made in house; host or cells: Escherichia coli strain HMS 174, vector pET16b
T1 sequence (O54824 1204-1322): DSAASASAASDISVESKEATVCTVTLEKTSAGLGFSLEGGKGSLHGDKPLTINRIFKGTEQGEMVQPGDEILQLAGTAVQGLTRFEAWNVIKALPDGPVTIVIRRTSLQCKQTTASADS
The assay can be described thus: IL-2R (CD25) induction on rIL-16-stimulated murine splenocytes, flow cytometry. Here is the method:
Induction of IL-2R (CD25) on rIL-16-stimulated murine splenocytes was detected by staining with FITC-conjugated anti-mouse IL-2R Ab (PharMingen). Cells were fixed with 10% formalin and stored at 4° C. in the dark before analysis with a Becton Dickinson FACScan 440 flow cytometer. The % IL-2R^+ cells was determined by subtracting the % isotype control positive from the total % positive events.
Peptides A (SEQ ID NO:15) and C (SEQ ID NO:19) were inhibitory at 10^−7 M, but not 10^−6 M. The negative control peptide D (SEQ ID NO:20) (10^−6 M) had no effect on rIL-16-stimulated IL-2R expression.
Murine splenocytes were incubated in control buffer, rIL-16 alone, or rIL-16 plus the indicated peptide. IL-2R expression was determined by flow cytometry using FITC-conjugated anti-IL-2R antibody. The % IL-2R^+ was determined by subtracting the FITC-conjugated isotype control antibody binding from the FITC-conjugated anti-IL-2R antibody binding. Isotype control antibody binding ranged from 1% to 4%.

Assay [1] concerns the target T2, murine rIL-16 (Mus musculus, UniProt O54824).
T2 construct: polyhistidine fusion protein containing the 119 C-terminal residues encoded by the previously reported murine cDNA; polyhistidine (cleaved yes); made in house; host or cells: Escherichia coli strain HMS 174, vector pET16b
T2 sequence (O54824 1204-1322): T1 sequence (O54824 1204-1322)
As to the kind of experiment: murine rIL-16-stimulated murine splenocyte migration, modified Boyden chamber. Conditions: for IL-16-inhibitory activity (block of murine rIL-16-stimulated murine splenocyte migration): peptide concentration not given. Here is the method: (§1) Cell migration was assessed using a modified Boyden chamber. […] Cell migration is expressed as the mean % control migration.
(§2) Results from multiple experiments were analyzed using Student's t test for paired variables, and Tukey's test for multiple variables. A P value<0.05 was considered significant.
Peptide B (aa 341-352) includes the sequence WQCLLS (residues 344-349, SEQ ID NO:4) which is 100% conserved in all the species examined. Peptide A (aa 327-338) and peptide C (aa 351-362) correspond to the N-terminal and C-terminal flanks of peptide B, respectively. A random scrambled 12-residue peptide (LSKQKMVSREGT) designated peptide D (SEQ ID NO:20) was used a negative control for nonspecific effects of peptide administration on splenocyte motility. Criteria for the design of peptide D included overall hydrophilicity, neutral charge and no cysteine residues (to prevent possible dimer formation).
Murine spleens were harvested from healthy 8-week male BALB/c mice (Jackson Laboratory). Splenocytes were isolated by grinding spleens between fiysted slides in M199 culture medium (M. A. Bioproducts), supplemented with 0.4% bovine serum albumin, 22 mM HEPES buffer, 100 with U/ml of penicillin, 100 μg/ml streptomycin (M199-HPS). Cells were washed and erytbrocytes were lysed in Gey's solution. Splenocytes were washed twice in M199, and resuspended to a final concentration of 2×10^6 cells/ml in RPMI1640 medium (BioWhittaker) supplemented with 10% FBS, 100 U/ml of penicillin and 100 μg/ml of streptomycin. By flow cytometry, 25% of the isolated splenocytes within the lymphocyte-cloud were CD4^+.
Recombinant murine IL-16 was produced in Escherichia coli (strain HMS 174; Novagen) as a polyhistidine fusion protein containing the 119 C-terminal residues encoded by the previously reported murine cDNA (Keane et al., (1998) J. Immunol. 160: 5945-5954), using the bacterial expression vector pET16b (Novagen). The recombinant product corresponds to the secreted form of natural murine IL-16 following cleavage by caspase-3 (Zhang et al. (1998) J. Biol. Chem. 273:1144-1149). The rIL-16 was purified by metal chelation chromatography, and the polyhistidine tag was cleaved with factor Xa (New England Biolabs).

In assay [2] the target is T2, murine rIL-16. As to the kind of experiment: IL-16-stimulated T-lymphocyte migration, human CD4 D4 point mutants. The note with it: human CD4 D4 wild type or point mutant, rIL-16 10^-9 M. Here is the method:
Point mutations at Leu 348 and Leu 349 in human CD4 were prepared as follows.
Initially 100 ng of wild type human CD4 cDNA (Richard Axel, Columbia University, N.Y.) contained within the mammalian expression vector pcDNA3.1(−) (Invitrogen, Carlsbad, Calif.) was subjected to the polymerase chain reaction (PCR) in the presence of 125 ng of each set of primer pairs. PCR conditions were as follows:
The time for the elongation step varied according to the relationship of 2 minutes per kilobase of plasmid DNA length. The product was then subjected to restriction digestion with the enzyme Dpn for 1 h. at 37° C. Dpn is specific for methylated nucleotides and therefore will only cut the original wide type CD4-plasmid DNA. The transformation reaction required the addition of 1 μl of the digest to 50 μl of Epicurean Blue Eschericia coli which was incubated on ice for 30 min. and finally heat shocked 42° C., 45 sec to seal the supercompent bacteria. The resultant bacteria culture was selected on ampicillin plates and sequenced to confirm mutagenesis.
as §1, §2
(FIGS. 10A and 10B). […] (FIGS. 11A and 11B).

Numbering of substitutions follows the chain as printed. Entries after “also recorded” stand apart in the source; their conditions may differ.

As to “LSKQKMVSREGT (OTHER INFORMATION: Description of Artificial Sequence:IL-16 antagonist peptide) [peptide D, random scrambled 12-residue peptide used as negative control, reference compound]”, in the assay with rIL-16 (IL-16 + negative control peptide, 10^-6 M), the “% IL-2R+ CELLS” value amounted to 37%. The “inhibition of IL-16-stimulated induction of IL-2R” value in the assay with rIL-16 (peptide 10^-6 M) is “no effect”. On to “VAPETG (OTHER INFORMATION: Description of Artificial Sequence:IL-16 antagonist peptide) [aa 337-342, bridges peptide A and peptide B]”, for which the “IL-16-inhibitory activity (block of murine rIL-16-stimulated murine splenocyte migration)” value with murine rIL-16 [1] (rIL-16 10^-9 M) is “failure; also recorded: lacked inhibitory activity”.

As to “VKQVVA (OTHER INFORMATION: Description of Artificial Sequence:IL-16 antagonist peptide) [aa 334 V:K substituted]”, the “reduction of IL-16-stimulated splenocyte migration in combination with peptide B” value with murine rIL-16 [1] (peptide 10^-6 M plus peptide B fixed 0.5×10^-8 M) and with murine rIL-16 [1] (peptide 10^-7 M plus peptide B fixed 0.5×10^-8 M) was “reduced IL-16-stimulated splenocyte migration” each time. In the case of “VSEEQK (OTHER INFORMATION: Description of Artificial Sequence:IL-16 antagonist peptide) [N-terminal half of peptide A]”, the “synergy when combined with peptide B” value in the assay with murine rIL-16 [1] (concentration not given, data not shown) was “no synergy”. Also, in the assay with murine rIL-16 [1] (rIL-16 10^-9 M), the “IL-16-inhibitory activity (block of murine rIL-16-stimulated murine splenocyte migration)” value is “no inhibitory activity”. Regarding “VVQKVA (OTHER INFORMATION: Description of Artificial Sequence:IL-16 antagonist peptide) [aa 336 V:K substituted]”, the “block of IL-16-stimulated splenocyte motility in combination with peptide B” value in the assay with murine rIL-16 [1] (peptide 0.5×10^-6 M to 0.5×10^-9 M (any concentration) plus peptide B fixed 0.5×10^-8 M) is “did not block IL-16”. Take “VVQVVA (OTHER INFORMATION: Description of Artificial Sequence:IL-16 antagonist peptide) [aa 333-338 of mouse CD4 D4, C-terminal half of peptide A]”: in the assay with murine rIL-16 [1] (6-residue peptide 10^-8 M combined with peptide B, data not shown), the “synergistic activity with peptide B” value was “synergistic activity”. Besides, the “inhibition of rIL-16-induced splenocyte migration” value in the assay with murine rIL-16 [1] (peptide 10^-6 M, rIL-16 10^-9 M) is listed as “inhibited rIL16-induced splenocyte migration”. In the case of “WACLLS (OTHER INFORMATION: Description of Artificial Sequence:IL-16 antagonist peptide) [aa 345 Q:A substituted]”, the “IL-16-inhibitory activity (block of murine rIL-16-stimulated murine splenocyte migration)” value in the assay with murine rIL-16 [1] (rIL-16 10^-9 M) is on record as “failed to block IL-16”.

Regarding “WQALLS (OTHER INFORMATION: Description of Artificial Sequence:IL-16 antagonist peptide) [aa 346 C:A substituted]”, the “IL-16-inhibitory activity (block of murine rIL-16-stimulated murine splenocyte migration)” value with murine rIL-16 [1] (rIL-16 10^-9 M) was “equally as effective as the native WQCLLS”.

In the case of “WQCELS (OTHER INFORMATION: Description of Artificial Sequence:IL-16 antagonist peptide) [aa 347 L:E substituted]”, the “IL-16-inhibitory activity (block of murine rIL-16-stimulated murine splenocyte migration)” value with murine rIL-16 [1] (rIL-16 10^-9 M) was “failed to block IL-16”. Consider “WQCLLS (OTHER INFORMATION: Description of Artificial Sequence:IL-16 antagonist peptide) [aa 344-349 of mouse CD4 D4]”, for which the “inhibition of IL-16 (splenocyte migration)” value with murine rIL-16 [1] (peptide 10^-7 M, rIL-16 10^-9 M) is “inhibited IL-16”.

B1: NLTCEVWGPTSPKLMLSLKLENKEAKVSKREKAVWVLNPEAGMWQCLLSDSGQVLLESNIKVLPTWSTPVQPM (peptide)
chain: NLTCEVWGPTSPKLMLSLKLENKEAKVSKREKAVWVLNPEAGMWQCLLSDSGQVLLESNIKVLPTWSTPVQPM
modifications: OTHER INFORMATION: Description of Artificial Sequence:IL-16 antagonist peptide
notes: aa 302-374 of human CD4 D4
Consider B1, for which the “inhibition of IL-16-stimulated T-lymphocyte migration” value in the assay with murine rIL-16 [2] is reported as “IL-16-inhibitory activity”.

B2: NLTCEVWGPTSPKLMLSLKLENKEAKVSKREKAVWVLNPEAGMWQCLSSDSGQVLLESNIKVLPTWSTPVQPM (peptide)
chain: B1 chain with L48S
modifications: OTHER INFORMATION: Description of Artificial Sequence:IL-16 antagonist peptide
notes: human CD4 D4 with leucine 349 to serine
Take B2: the “inhibition of IL-16-stimulated T-lymphocyte migration” value with murine rIL-16 [2] is recorded as “lost the ability to inhibit”; with murine rIL-16 [2] (listed as human CD4 (L349→S)), “complete loss in inhibition”.

B3: … (peptide)
chain: B1 chain with L47I
modifications: OTHER INFORMATION: Description of Artificial Sequence:IL-16 antagonist peptide
notes: human CD4 D4 with Isoleucine substituted at position 348
With B3, the entries for the “inhibition of IL-16-stimulated T-lymphocyte migration” value with murine rIL-16 [2] and with murine rIL-16 [2] (listed as Leucine 348 was conservatively substituted with Isoleucine) were “maintained partial ability to inhibit” and “Partial inhibition”, respectively.

B4: NLTCEVWGPTSPKLMLSLKLENKEAKVSKREKAVWVLNPEAGMWQCSLSDSGQVLLESNIKVLPTWSTPVQPM (peptide)
chain: B1 chain with L47S
modifications: OTHER INFORMATION: Description of Artificial Sequence:IL-16 antagonist peptide
notes: human CD4 D4 with leucine 348 to serine
Consider B4, for which the results for the “inhibition of IL-16-stimulated T-lymphocyte migration” value with murine rIL-16 [2] and in the assay with murine rIL-16 [2] (listed as human CD4 (L348→S)) were “lost the ability to inhibit” and “complete loss in inhibition”, respectively.

B5: rIL-16: recombinant murine IL-16, 119 C-terminal residues, produced in Escherichia coli (protein)
chain: T1 sequence (O54824 1204-1322)
B5: the “% IL-2R+ CELLS” value in the assay with rIL-16 (rIL-16 10^-9 M alone, no stimulation 24) stood at 36%. For the same molecule, in the assay with rIL-16 (rIL-16 alone, murine splenocytes), the “increase of basal IL-2R expression” value is listed as 50%.
